19 molecules from patent US20110045489A1, “Polymerases for Incorporating Modified Nucleotides” (NEW ENGLAND BIOLABS, INC., priority 2008, published 2011) can be followed below.

Where a chain is given by its changes, count along the chain named. In names and notes the source's numbering stands.

The labels stand for the following.
B1: Mma D153A/E155A/L417S/P419V: Methanococcus maripaludis DNA polymerase mutant (protein)
chain: MESLIDLDYNSDDLCIYLYLINSIIKEKDFKPYFYVNSTDKEQILEFLKDYEKKHKLDSEISKMIENIETVKKIVFDENYQEKELSKVTVKYPNNVKTVREILMEFERLYEYDIPFVRRYLIDNSVIPTSTWDFENNKKIDNKIPDFKTVSFAIAVYCNKEPNPKKDPIIMASFSSKDFNTVVSTKKFDHEKLEYVKDEKELIKRIIEILKEYDIIYTYNGDNFDFPYLKKRAESFGLELKLGKNDEKIKITKGGMNSKSYIPGRVHIDLYPIARRLLNLTKYRLENVTEALFDVKKVDVGHENIPKMWDNLDETLVEYSHQDAYYTQRIGEQFLPLEIMFSRVVNQSLYDINRMSSSQMVEYLLLKNSYKMGVIAPNRPSGKEYQKRIRSSYEGGYVKEPLKGIHEDIVSMDFLSSYVSIIMSHNLSPETIDCTCCSDEENGENEEILGHKFCKKSIGIIPKTLMDLINRRKKVKKVLREKAEKGEFDEEYQILDYEQRSIKVLANSHYGYLAFPMARWYSRDCAEITTHLGRQYIQKTIEEAENFGFKVIYADTDGFYSKWADDKEKLSKYELLEKTREFLKNINNTLPGEMELEFEGYFKRGIFVTKKKYALIDENEKITVKGLEVVRRDWSNVSKNTQKNVLNALLKEGSVENAKKVIQDTIKELKDGKVNNEDLLIHTQLTKRIEDYKTTAPHVEVAKKILKSGNRVNTGDVISYIITSGNKSISERAEILENAKNYDTNYYIENQILPPVIRLMEALGITKDELKDSKKQYTLHHFLK
B2: 9° N D141A/E143A/R406E/L408G: 9° N DNA polymerase mutant (protein, UniProt Q56366 1-775, looked up, variant D141A E143A R406E L408G)
DNA polymerase: MILDTDYITENGKPVIRVFKKENGEFKIEYDRTFEPYFYALLKDDSAIEDVKKVTAKRHGTVVKVKRAEKVQKKFLGRPIEVWKLYFNHPQDVPAIRDRIRAHPAVVDIYEYDIPFAKRYLIDKGLIPMEGDEELTMLAFAIATLYHEGEEFGTGPILMISYADGSEARVITWKKIDLPYVDVVSTEKEMIKRFLRVVREKDPDVLITYNGDNFDFAYLKKRCEELGIKFTLGRDGSEPKIQRMGDRFAVEVKGRIHFDLYPVIRRTINLPTYTLEAVYEAVFGKPKEKVYAEEIAQAWESGEGLERVARYSMEDAKVTYELGREFFPMEAQLSRLIGQSLWDVSRSSTGNLVEWFLLRKAYKRNELAPNKPDERELARRRGGYAGGYVKEPERGLWDNIVYLDFESGYPSIIITHNVSPDTLNREGCKEYDVAPEVGHKFCKDFPGFIPSLLGDLLEERQKIKRKMKATVDPLEKKLLDYRQRAIKILANSFYGYYGYAKARWYCKECAESVTAWGREYIEMVIRELEEKFGFKVLYADTDGLHATIPGADAETVKKKAKEFLKYINPKLPGLLELEYEGFYVRGFFVTKKKYAVIDEEGKITTRGLEIVRRDWSEIAKETQARVLEAILKHGDVEEAVRIVKEVTEKLSKYEVPPEKLVIHEQITRDLRDYKATGPHVAVAKRLAARGVKIRPGTVISYIVLKGSGRIGDRAIPADEFDPTKHRYDAEYYIENQVLPAVERILKAFGYRKEDLRYQKTKQVGLGAWLKVKGKK
B3: 9° N D141A/E143A/Y409A/R406T/L408R: 9° N DNA polymerase mutant (protein, UniProt Q56366 1-775, looked up, variant D141A E143A Y409A R406T L408R)
DNA polymerase: B2 DNA polymerase with E406T, G408R, Y409A
B4: 9° N D141A/E143A/Y409A/R406V/L408Y: 9° N DNA polymerase mutant (protein, UniProt Q56366 1-775, looked up, variant D141A E143A Y409A R406V L408Y)
DNA polymerase: B2 DNA polymerase with E406V, G408Y, Y409A
B5: 9° N D141A/E143A/Y409A/R406V/A485L: 9° N DNA polymerase mutant (protein, UniProt Q56366 1-775, looked up, variant D141A E143A Y409A R406V A485L)
DNA polymerase: B2 DNA polymerase with E406V, G408L, Y409A, A485L
B6: 9° N D141A/E143A/R406P/L408G: 9° N DNA polymerase mutant (protein, UniProt Q56366 1-775, looked up, variant D141A E143A R406P L408G)
DNA polymerase: B2 DNA polymerase with E406P
B7: 9° N D141A/E143A/Y409A/R406P/L408C: 9° N DNA polymerase mutant (protein, UniProt Q56366 1-775, looked up, variant D141A E143A Y409A R406P L408C)
DNA polymerase: B2 DNA polymerase with E406P, G408C, Y409A
B8: 9° N D141A/E143A/Y409A/R406S/L408R: 9° N DNA polymerase mutant (protein, UniProt Q56366 1-775, looked up, variant D141A E143A Y409A R406S L408R)
DNA polymerase: B2 DNA polymerase with E406S, G408R, Y409A
B9: 9° N D141A/E143A/Y409A/R406V: 9° N DNA polymerase mutant (protein, UniProt Q56366 1-775, looked up, variant D141A E143A Y409A R406V)
DNA polymerase: B2 DNA polymerase with E406V, G408L, Y409A
B10: 9° N D141A/E143A/Y409A/P410R/S411T: 9° N DNA polymerase mutant (protein, UniProt Q56366 1-775, looked up, variant D141A E143A Y409A P410R S411T)
DNA polymerase: B2 DNA polymerase with E406R, G408L, Y409A, P410R, S411T
B11: 9° N D141A/E143A/Y409A/R406T/L408K: 9° N DNA polymerase mutant (protein, UniProt Q56366 1-775, looked up, variant D141A E143A Y409A R406T L408K)
DNA polymerase: B2 DNA polymerase with E406T, G408K, Y409A
B12: 9° N D141A/E143A/Y409A/R406Y/L408G: 9° N DNA polymerase mutant (protein, UniProt Q56366 1-775, looked up, variant D141A E143A Y409A R406Y L408G)
DNA polymerase: B2 DNA polymerase with E406Y, Y409A
B13: 9° N D141A/E143A/L408S/Y409A/P410V/S411T: 9° N DNA polymerase mutant (protein, UniProt Q56366 1-775, looked up, variant D141A E143A L408S Y409A P410V S411T)
DNA polymerase: B2 DNA polymerase with E406R, G408S, Y409A, P410V, S411T
B14: 9° N exo-P410V: 9° N DNA polymerase mutant (protein, UniProt Q56366 1-775, looked up, variant D141A E143A P410V)
DNA polymerase: B2 DNA polymerase with E406R, G408L, P410V
B15: 9° N D141A/E143A/Y409A/R406S/L408I: 9° N DNA polymerase mutant (protein, UniProt Q56366 1-775, looked up, variant D141A E143A Y409A R406S L408I)
DNA polymerase: B2 DNA polymerase with E406S, G408I, Y409A
B16: 9° N D141A/E143A/Y409A/R406H/L408G: 9° N DNA polymerase mutant (protein, UniProt Q56366 1-775, looked up, variant D141A E143A Y409A R406H L408G)
DNA polymerase: B2 DNA polymerase with E406H, Y409A
B17: 9° N D141A/E143A/Y409A/R406L/L408G: 9° N DNA polymerase mutant (protein, UniProt Q56366 1-775, looked up, variant D141A E143A Y409A R406L L408G)
DNA polymerase: B2 DNA polymerase with E406L, Y409A
B18: 9° N D141A/E143A/Y409A/R406S/L408K: 9° N DNA polymerase mutant (protein, UniProt Q56366 1-775, looked up, variant D141A E143A Y409A R406S L408K)
DNA polymerase: B2 DNA polymerase with E406S, G408K, Y409A
B19: 9° N D141A/E143A/Y409A/S411T: 9° N DNA polymerase mutant (protein, UniProt Q56366 1-775, looked up, variant D141A E143A Y409A S411T)
DNA polymerase: B2 DNA polymerase with E406R, G408L, Y409A, S411T

The assay deals with modified nucleotide. Briefly: Screen of DNA polymerase mutants for modified nucleotide incorporation. The assay is classed as biochemical. From the text:
In order to determine the extent of 3′-modified nucleotide incorporation by archaeon DNA polymerases, the titration assay described by Gardner and Jack (2002) was used. In this assay, the efficiency of incorporation of chain terminators was judged by the size of the reaction products in a polymerization reaction. As the efficiency of chain-terminator incorporation increased, the average reaction product size decreased because polymerization was more often halted by terminator addition. By comparing the amount of terminator required to give the same spectrum of reaction products, the relative efficiency of incorporation of the test compounds with the different polymerases was determined.
A complex library of 9° N DNA polymerase mutants was screened for enhanced incorporation of 3′-azido-ddCTP. Several classes of 9° N DNA polymerase mutants were identified with enhanced terminator incorporation. 9° N exo-L408S/Y409A/P410V (Therminator III™, NEB, Inc., Ipswich, Mass.) was purified and characterized in more detail. 9° N DNA polymerase single mutants P410V, L408S, and Y409A and double mutants L408S/P410V, L408S/Y409A, and Y409A/P410V were also purified for comparison. Purification and characterization of DNA polymerase mutants was as described in Gardner and Jack, Nucleic Acids Res. 27:2545-2553 (1999).
A library of 9° N DNA polymerase mutants was constructed by PCR amplification of the polymerase genes using gene-specific primers or codon optimization and gene synthesis Czar et al. Trends Biotechnol 27(2): 63-72 (2009)). The ability to incorporate 3′-modified nucleotide terminators was evaluated by the titration assay for chain terminator incorporation efficiency as described by Gardner and Jack (2002).
Furthermore, the same assay was used to measure 3′-amino-ddCTP incorporation by 9° N exo-L408S/Y409A/P410V (FIG. 3) and to measure rates of incorporation (FIG. 4). Examples of mutants that increased modified nucleotide incorporation by at least two-fold were: […]
For B1, the “increase of modified nucleotide incorporation” value (from here on “increase”) is listed as “at least two-fold”.
To B2 belongs “at least two-fold”; to B3, “at least two-fold”; to B4, “at least two-fold”.
B5: the “increase” value is “at least two-fold”.
To B6 belongs “at least two-fold”.
For B7, the “increase” value is given as “at least two-fold”.
For B8 the value was “at least two-fold”.
Regarding B9, the “increase” value is given as “at least two-fold”.
With B10, the “increase” value is recorded as “at least two-fold”.
B11: the “increase” value is recorded as “at least two-fold”.
B12: the “increase” value is given as “at least two-fold”.
For the molecule B13, the “increase” value is on record as “at least two-fold”.
To B14 belongs “at least two-fold”; to B15, “at least two-fold”.
To B16 belongs “at least two-fold”; to B17, “at least two-fold”.
To B18 belongs “at least two-fold”; to B19, “at least two-fold”.
